Substitutions are numbered along the chain they refer to.

Assay [1] addresses T1, Chlamydomonas reinhardtii Rubisco holoenzyme (L8S8) (Chlamydomonas reinhardtii, UniProt P00877 3-475).
T1 construct: Purified from C. reinhardtii strain cMJ030 (sucrose gradient, anion exchange); also called purified Rubisco; Cr L8S8 Rubisco
In words: SPR, steady-state fit. For orientation: Surface plasmon resonance follows binding to a sensor surface in real time, without labels.

Assay [2] has as its target T1, Chlamydomonas reinhardtii Rubisco …. In words: SPR, Rubisco immobilized, peptide at 0-4.0 mM in solution (FIG. 4C). From the text:
FIGS. 4A-4C show the EPYC1 fragment that was used to generate the cryoelectron microscopy structure shown in FIGS. 5A-5D, as well as the binding affinity of the EPYC1 fragment for Rubisco. […] The four nearly identical repeats (Repeats 1-4), flanked by short N- and C- termini are indicated. The dark grey boxes represent the ten RBMs on EPYC1. The dark grey bar above the boxes (“EPYC1 peptide”) spans RBM 2 of EPYC1 and represents the 24 amino acid EPYC1 fragment (SEQ ID NO: 51) that was used to generate the cryoelectron microscopy structure of Rubisco bound to the RBM 2 EPYC1 fragment shown in FIGS. 5A-5D. FIGS. 4B-4C provide results of SPR experiments to determine the binding affinity of the 24 amino acid EPYC1 fragment diagramed in FIG. 4A for Rubisco. […] The response difference (Resp. Diff., in RU) is shown on the y-axis.
Surface Plasmon Resonance (SPR) Assay Rubisco was immobilized on a surface and peptides in solution were flowed over the surface. Surface plasmon measurements of binding of individual peptides to Rubisco were assayed (FIG. 3B).

The target is the same in assay [3]. In words: SPR; highest binding affinity of all peptides tested.
The target of the next assay is T2, S1Cr_M87D/V94D.
T2 construct: variant of m7
T2 chain: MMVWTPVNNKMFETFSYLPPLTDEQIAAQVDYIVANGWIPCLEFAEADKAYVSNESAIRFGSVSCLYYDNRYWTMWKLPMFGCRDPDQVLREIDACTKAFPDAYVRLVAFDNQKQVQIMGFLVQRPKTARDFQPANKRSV
Nature of the assay: yeast two-hybrid, Control SD-L-W, Test SD-L-W-H with 3-AT (concentration not given). From the text:
(§1) FIGS. 9A-9C show the results of a yeast two-hybrid (Y2H) assay to measure the interaction between EPYC1 and Rubisco SSU variants. […] The images shown were taken following three days of cell growth. The Rubisco SSU residues that form salt bridges with EPYC1 residues are bolded (D23, E24, and R91) and the residues that form the hydrophobic pocket with EPYC1 residues are bolded and italicized (M87 and V94). The “Control” images were taken from cells grown for three days on SD-L-W media and the “Test” images were taken from cells grown for three days on SD-L-W-H with 3-AT. Growth of yeast cells expressing the indicated EPYC1 and Rubisco SSU variants was measured after three days on SD-L-W-H with varying 3-AT concentrations. The highest concentration of 3-AT (0, 1, 2.5, 5, 10, and 20 mM) permissive for the growth of each EPYC1 and Rubisco SSU variant combination is shown, as indicated in the “Key” on the right.
Mutagenesis of EPYC1, Mutagenesis of Rubisco, Yeast Two-hybrid, Peptide Arrays and SPR Assays To determine the importance of individual EPYC1 residues for binding to Rubisco, the impact on Rubisco binding of every possible single amino acid substitution for EPYC1 RBM 2 was determined (FIG. 8). […]

Another assay concerns the target T3, S1Cr_D23A.
T3 construct: variant of m7
T3 chain: T2 chain with D23A, D87M, D94V
In words: yeast two-hybrid, EPYC1 as BD and SSU variant as AD.
Description: as §1
(§2) Mutagenesis of EPYC1, Mutagenesis of Rubisco, Yeast Two-hybrid, Peptide Arrays and SPR Assays To determine the importance of individual EPYC1 residues for binding to Rubisco, the impact on Rubisco binding of every possible single amino acid substitution for EPYC1 RBM 2 was determined (FIG. 8). To determine the importance of individual Rubisco residues for binding to EPYC1, targeted mutations of the amino acids identified from atomic modeling were tested in a yeast two-hybrid assay as in van Nues and Beggs (Genetics 157: 1451-1467, 2000). Peptide arrays and SPR assays were performed as in Example 1.

A further assay addresses T4, S1Cr_D23A+E24A+R91A.
T4 construct: variant of m7
T4 chain: T2 chain with D23A, E24A, D87M, R91A, D94V
The assay is described as above.
Description: as §1, §2

The next assay concerns the target T5, S1Cr_D23A+E24A.
T5 construct: variant of m7
T5 chain: T2 chain with D23A, E24A, D87M, D94V
Described as above.
Description: as §1, §2

Another assay deals with S1Cr_V94D (Chlamydomonas reinhardtii). Nature of the assay: cell-based or functional assay.
Another assay has as its target S1Cr_M87D (Chlamydomonas reinhardtii). In words: cell-based or functional assay.
In assay [4] the target is Chlamydomonas reinhardtii Rubisco small subunit 1 (Chlamydomonas reinhardtii, UniProt P00873 46-185). Nature of the assay: cell-based or functional assay.

B1: 24 amino acid EPYC1 fragment spanning RBM 2 (peptide)
peptide: TNRVSPTRSVLPANWRQELESLRN
notes: also called EPYC1 peptide; RBM 2 EPYC1 fragment
As to B1, in assay [1], the Ka is 324 M⁻¹. Besides, the Kd in assay [2] is 3.09 mM; in [3], 3 mM.

B2: Chlamydomonas reinhardtii Essential Pyrenoid Component 1 (EPYC1) (other)
chain: MATISSMRVGAASRVVVSGRVKTVKVAARGSWRESSTATVQASRASSATNRVSPTRSVLPANWRQELESLRNGNGSSSAASSAPAPARSSSASWRDAAPASSAPARSSSASKKAVTPSRSALPSNWKQELESLRSSSPAPASSAPAPARSSSASWRDAAPASSAPARSSSSKKAVTPSRSALPSNWKQELESLRSSSPAPASSAPAPARSSSASWRDAAPASSAPARSSSASKKAVTPSRSALPSNWKQELESLRSNSPAPASSAPAPARSSSASWRDAPASSSSSSADKAGTNPWTGKSKPEIKRTALPADWRKGL
notes: also called WT EPYC1
For B2, the binding result in the assay with S1Cr_M87D/V94D, with S1Cr_D23A, with S1Cr_D23A+E24A+R91A and with S1Cr_D23A+E24A was “no binding” each time. The “highest 3-AT concentration permissive for growth (Y2H), box pattern read against the printed key” value with S1Cr_V94D came to 0 mM 3-AT; with S1Cr_M87D, 0 mM 3-AT; in assay [4], 20 mM 3-AT.

For orientation: Kd means the constant that tells how readily two partners part at equilibrium.

Source of the values: patent US20220275390A1 (TRUSTEES OF PRINCETON UNIVERSITY, published 2022).
